Results from patent US20130209454A1.
Where a chain is given by its changes, count along the chain named. Numbers in names are those of the source.

How the values were obtained:
Test in all cases: cell-based or functional assay
[1] = target: HIV-1 Env of strain 3718.v3.c11 (HIV-1)
[2] = target: HIV-1 Env of strain 620345.c01 (HIV-1)
[3] = target: HIV-1 Env of strain 62357_14_D3_4589 (HIV-1)
[4] = target: HIV-1 strain ZM109F.PB4 envelope (gp120) (HIV-1)
[5] = target: HIV-1 strain Ce0393_C3 envelope (gp120) (HIV-1)
[6] = target: HIV-1 strain T257-31 envelope (gp120) (HIV-1)
[7] = target: HIV-1 strain ZM135M.PL10a envelope (gp120) (HIV-1)
[8] = target: HIV-1 Env of strain CNE30 (HIV-1)
[9] = target: HIV-1 Env of strain Q842.d12 (HIV-1)
[10] = target: HIV-1 Env of strain ZM135M.PL10a (HIV-1)
[11] = target: HIV-1 Env of strain T257-31 (HIV-1)
[12] = target: HIV-1 strain C3347.c11 envelope (gp120) (HIV-1)
[13] = target: HIV-1 strain Q23.17 envelope (gp120) (HIV-1)
[14] = target: HIV-1 strain R1166.c01 envelope (gp120) (HIV-1)
[15] = target: HIV-1 strain 703357.C02 envelope (gp120) (HIV-1)
[16] = target: HIV-1 strain QH0692.42 envelope (gp120) (HIV-1)
[17] = target: HIV-1 strain ZM197M.PB7 envelope (gp120) (HIV-1)
[18] = target: HIV-1 Env of strain WEAU_d15_410_787 (HIV-1)
[19] = target: HIV-1 Env of strain WITO4160.33 (HIV-1)
[20] = target: HIV-1 strain 6540.v4.c1 envelope (gp120) (HIV-1)
[21] = target: HIV-1 strain 6480.v4.c25 envelope (gp120) (HIV-1)
[22] = target: HIV-1 strain ZM214M.PL15 envelope (gp120) (HIV-1)
[23] = target: HIV-1 Env of strain QH0692.42 (HIV-1)
[24] = target: HIV-1 strain Q769.d22 envelope (gp120) (HIV-1)
[25] = target: HIV-1 strain CAAN5342.A2 envelope (gp120) (HIV-1)
[26] = target: HIV-1 Env of strain Du172.17 (HIV-1)
[27] = target: HIV-1 strain 3103.v3.c10 envelope (gp120) (HIV-1)
[28] = target: HIV-1 strain Ce0682_E4 envelope (gp120) (HIV-1)
[29] = target: HIV-1 Env of strain CAAN5342.A2 (HIV-1)
[30] = target: HIV-1 Env of strain 6545.v4.cl (HIV-1)
[31] = target: HIV-1 Env of strain Q769.d22 (HIV-1)
[32] = target: HIV-1 strain P0402_c2_11 envelope (gp120) (HIV-1)
[33] = target: HIV-1 Env of strain PVO.4 (HIV-1)
[34] = target: HIV-1 Env of strain TRO.11 (HIV-1)
[35] = target: HIV-1 strain Q842.d12 envelope (gp120) (HIV-1)
[36] = target: HIV-1 strain 3016.v5.c45 envelope (gp120) (HIV-1)
[37] = target: HIV-1 Env of strain Q23.17 (HIV-1)
[38] = target: HIV-1 strain 3718.v3.c11 envelope (gp120) (HIV-1)
[39] = target: HIV-1 Env of strain 3415.v1.c1 (HIV-1)
[40] = target: HIV-1 strain Ce703010054_2A2 envelope (gp120) (HIV-1)
[41] = target: HIV-1 strain 6535.3 envelope (gp120) (HIV-1)
[42] = target: HIV-1 strain HIV-16845-2.22 envelope (gp120) (HIV-1)
[43] = target: HIV-1 strain WITO4160.33 envelope (gp120) (HIV-1)
[44] = target: HIV-1 strain TRJO4551.58 envelope (gp120) (HIV-1)
[45] = target: HIV-1 Env of strain ZM53M.PB12 (HIV-1)
[46] = target: HIV-1 Env of strain T278-50 (HIV-1)
[47] = target: HIV-1 Env of strain ZM197M.PB7 (HIV-1)
[48] = target: HIV-1 Env of strain Ce0393_C3 (HIV-1)
[49] = target: HIV-1 strain ZM53M.PB12 envelope (gp120) (HIV-1)
[50] = target: HIV-1 strain 1006_11_C3_1601 envelope (gp120) (HIV-1)

B1: NIH45-46^G54W IgG (antibody, name in Kabat numbering, V domains shown)
VH: QVRLSQSGGQMKKPGESMRLSCRASGYEFLNCPINWIRLAPGRRPEWMGWLKPRWGAVNYARKFQGRVTMTRDVYSDTAFLELRSLTSDDTAVYFCTRGKYCTARDYYNWDFEHWGRGAPVTVSS
VL: EIVLTQSPATLSLSPGETAIISCRTSQSGSLAWYQQRPGQAPRLVIYSGSTRAAGIPDRFSGSRWGADYNLSISNLESGDFGVYYCQQYEFFGQGTKVQVDI
improvement of neutralization potency over NIH45-46 [1]: 2000 fold
neutralization IC50 [1]: 0.01 µg/mL
neutralization IC50 [2]: > 50 µg/mL
neutralization IC50 [3]: 0.02 µg/mL
neutralization IC80 [4]: 0.07 µg/mL
neutralization IC80 [5]: 0.089 µg/mL
neutralization IC80 [6]: 0.45 µg/mL
neutralization IC80 [7]: 0.16 µg/mL
neutralization IC50 [8]: 0.052 µg/mL
neutralization IC50 [9]: 0.005 µg/mL
neutralization IC50 [10]: 0.04 µg/mL
neutralization IC50 [11]: 0.13 µg/mL
neutralization IC80 [12]: 0.028 µg/mL
neutralization IC80 [13]: 0.03 µg/mL
neutralization IC80 [14]: 0.51 µg/mL
neutralization IC80 [15]: 17.6 µg/mL
neutralization IC80 [16]: 1.12 µg/mL
neutralization IC80 [17]: 0.18 µg/mL
neutralization IC50 [18]: < 0.001 µg/mL
neutralization IC50 [19]: 0.01 µg/mL
neutralization IC80 [20]: > 50 µg/mL
neutralization IC80 [21]: 0.021 µg/mL
neutralization IC80 [22]: 0.15 µg/mL
neutralization IC50 [23]: 0.37 µg/mL
neutralization IC80 [24]: 0.009 µg/mL
neutralization IC80 [25]: 0.21 µg/mL
neutralization IC50 [26]: 3.65 µg/mL
neutralization IC80 [27]: 0.56 µg/mL
neutralization IC80 [28]: 0.039 µg/mL
neutralization IC50 [29]: 0.07 µg/mL
neutralization IC50 [30]: 18.9 µg/mL
neutralization IC50 [31]: < 0.001 µg/mL
neutralization IC80 [32]: 0.023 µg/mL
neutralization IC50 [33]: 0.05 µg/mL
neutralization IC50 [34]: 0.04 µg/mL
neutralization IC80 [35]: 0.025 µg/mL
neutralization IC80 [36]: 15.4 µg/mL
neutralization IC50 [37]: 0.01 µg/mL
neutralization IC80 [38]: 0.04 µg/mL
neutralization IC50 [39]: < 0.001 µg/mL
neutralization IC80 [40]: 0.077 µg/mL
neutralization IC80 [41]: 0.13 µg/mL
neutralization IC80 [42]: 2.1 µg/mL
neutralization IC80 [43]: 0.04 µg/mL
neutralization IC80 [44]: 0.05 µg/mL
neutralization IC50 [45]: 0.04 µg/mL
neutralization IC50 [46]: > 50 µg/mL
neutralization IC50 [47]: 0.04 µg/mL
neutralization IC50 [48]: 0.013 µg/mL
neutralization IC80 [49]: 0.16 µg/mL
neutralization IC80 [50]: 0.008 µg/mL

B2: NIH45-46^G54W(HC), S28Y(LC) (antibody, V domains shown)
VH: B1 VH
VL: B1 VL with S28Y
IC50, pseudovirus neutralization [2]: > 50 µg/mL
IC50, pseudovirus neutralization [3]: 0.015 µg/mL
IC50, pseudovirus neutralization [8]: 0.082 µg/mL
IC50, pseudovirus neutralization [9]: 0.001 µg/mL
IC50, pseudovirus neutralization [10]: 0.049 µg/mL
IC50, pseudovirus neutralization [11]: 0.126 µg/mL
IC50, pseudovirus neutralization [18]: 0.008 µg/mL
IC50, pseudovirus neutralization [19]: 0.015 µg/mL
IC50, pseudovirus neutralization [23]: 0.216 µg/mL
IC50, pseudovirus neutralization [26]: 0.015 µg/mL
IC50, pseudovirus neutralization [29]: 0.078 µg/mL
IC50, pseudovirus neutralization [31]: 0.003 µg/mL
IC50, pseudovirus neutralization [33]: 0.014 µg/mL
IC50, pseudovirus neutralization [34]: 0.02 µg/mL
IC50, pseudovirus neutralization [37]: 0.015 µg/mL
IC50, pseudovirus neutralization [39]: 0.013 µg/mL
IC50, pseudovirus neutralization [45]: 0.091 µg/mL
IC50, pseudovirus neutralization [46]: > 50 µg/mL
IC50, pseudovirus neutralization [47]: 0.074 µg/mL
IC50, pseudovirus neutralization [48]: 0.046 µg/mL
